Experimental data taken from patent publication USRE47150 (Bayer, dated 2018).
Where a chain is given by its changes, count along the chain named. Numbers in names are those of the source.

T1: mouse tissue factor pathway inhibitor (TFPI) (mouse, UniProt O54819 29-289, limits assumed)
T1 construct: bought; also called mTFPI; murine TFPI
T1 sequence (looked up): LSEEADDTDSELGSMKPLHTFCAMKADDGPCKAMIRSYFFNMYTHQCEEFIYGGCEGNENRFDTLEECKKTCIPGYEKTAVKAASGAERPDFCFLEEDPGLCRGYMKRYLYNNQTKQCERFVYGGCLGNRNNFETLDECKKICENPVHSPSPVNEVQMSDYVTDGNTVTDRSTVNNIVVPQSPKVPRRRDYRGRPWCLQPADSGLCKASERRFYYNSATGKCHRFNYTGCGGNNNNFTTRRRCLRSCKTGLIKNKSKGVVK

T2: human tissue factor pathway inhibitor (TFPI) (human, UniProt P10646 29-304, limits assumed)
T2 construct: bought; also called hTFPI; human TFPI
T2 sequence (looked up): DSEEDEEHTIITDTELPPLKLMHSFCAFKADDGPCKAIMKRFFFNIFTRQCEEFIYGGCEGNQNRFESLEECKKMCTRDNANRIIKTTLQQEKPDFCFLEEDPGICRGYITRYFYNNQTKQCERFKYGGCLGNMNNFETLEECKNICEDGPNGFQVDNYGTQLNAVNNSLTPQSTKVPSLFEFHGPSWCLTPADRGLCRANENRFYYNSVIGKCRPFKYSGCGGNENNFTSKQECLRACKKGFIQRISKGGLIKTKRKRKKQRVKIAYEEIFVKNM

B1: 4B7 HC D62Q+H107M+Y112D/LC D33F+N35I (Fab, V domains shown)
VH: QVQLQQSGPGLVKPSQTLSLTCAISGDSVSSNSAAWSWIRQSPGRGLEWLGIIYKRSKWYNQYAVSVKSRITINPDTSKNQFSLQLNSVTPEDTAVYYCARWHSDKMWGFDDWGQGTLVTVSS
VL: DIVMTQSPLSLPVTPGEPASISCRSSQSLVFSFGITYLNWYLQKPGQSPQLLIYKGSNRASGVPDRFSGSGSGTDFTLKISRVEAEDVGVYYCQQYDSYPLTFGQGTKVEIKR
B2: 4B7 HC D62R+Y112D/LC S32R+D33F+N35I (Fab, V domains shown)
VH: B1 VH with Q62R, M107H
VL: B1 VL with S32R
B3: 4B7 HC D62Q+Y112D/LC S32R+D33F+N35I (Fab, V domains shown)
VH: B1 VH with M107H
VL: B1 VL with S32R
B4: 4B7 HC D62R+H107M+Y112D/LC F31M+D33F (Fab, V domains shown)
VH: B1 VH with Q62R
VL: B1 VL with F31M, I35N
B5: 4B7 HC N32D+D62Q+Y112D/LC F31I+D33F+N35I+K44R (Fab, V domains shown)
VH: B1 VH with N32D, M107H
VL: B1 VL with F31I, K44R
B6: 4B7 HC N32D+D62Q+Y112D/LC F31I+D33F+N35I+L42Q (Fab, V domains shown)
VH: B1 VH with N32D, M107H
VL: B1 VL with F31I, L42Q
B7: 4B7 HC N32D+D62Q+Y112D/LC F31M+S32R+D33F+N35I (Fab, V domains shown)
VH: B1 VH with N32D, M107H
VL: B1 VL with F31M, S32R
B8: 4B7 HC D62R+H107M+Y112D/LC N35T+D97T (Fab, V domains shown)
VH: B1 VH with Q62R
VL: B1 VL with F33D, I35T, D97T
B9: 4B7 HC N32D+D62Q+Y112D/LC S32R+D33F+N35I+D97T (Fab, V domains shown)
VH: B1 VH with N32D, M107H
VL: B1 VL with S32R, D97T
B10: 4B7 HC D62R+H107M+Y112D/LC S32R+D33F+N35I (Fab, V domains shown)
VH: B1 VH with Q62R
VL: B1 VL with S32R
B11: 4B7 HC N32D+D62Q+Y112D/LC F31I+D33F+N35I+S98H (Fab, V domains shown)
VH: B1 VH with N32D, M107H
VL: B1 VL with F31I, S98H
B12: 4B7 HC N32D+D62Q+H107M+Y112D/LC D33R+N35T (Fab, V domains shown)
VH: B1 VH with N32D
VL: B1 VL with F33R, I35T
B13: 4B7 HC N32D+D62Q+H107M+Y112D/LC S32R+D33R (Fab, V domains shown)
VH: B1 VH with N32D
VL: B1 VL with S32R, F33R, I35N
B14: 4B7 HC N32D+D62Q+H107M+Y112D/LC S32R+D33F (Fab, V domains shown)
VH: B1 VH with N32D
VL: B1 VL with S32R, I35N
B15: 4B7 HC N32D+D62Q+H107M+Y112D/LC N35I (Fab, V domains shown)
VH: B1 VH with N32D
VL: B1 VL with F33D
B16: 4B7 HC D62R+H107M+Y112D/LC F31M+D33F+N35I (Fab, V domains shown)
VH: B1 VH with Q62R
VL: B1 VL with F31M
B17: 4B7 HC D62R+H107M+Y112D/LC F31I+S32R+D33F+N35I+D97T (Fab, V domains shown)
VH: B1 VH with Q62R
VL: B1 VL with F31I, S32R, D97T
B18: 4B7 HC D62R+H107M+Y112D/LC F31I+D33R+N35I (Fab, V domains shown)
VH: B1 VH with Q62R
VL: B1 VL with F31I, F33R
B19: 4B7 HC N32D+D62Q+H107M+Y112D/LC F31M+S32R+D33F+N35I+D97T (Fab, V domains shown)
VH: B1 VH with N32D
VL: B1 VL with F31M, S32R, D97T
B20: 4B7 HC N32D+D62Q+Y112D/LC F31I+D33F+N35I+D97T (Fab, V domains shown)
VH: B1 VH with N32D, M107H
VL: B1 VL with F31I, D97T
B21: 4B7 HC N32D+D62Q+H107M+Y112D/LC S32R+N35T (Fab, V domains shown)
VH: B1 VH with N32D
VL: B1 VL with S32R, F33D, I35T
B22: 4B7 HC N32D+D62Q+Y112D/LC F31I+D33F+N35I+T36N (Fab, V domains shown)
VH: B1 VH with N32D, M107H
VL: B1 VL with F31I, T36N
B23: 4B7 HC N32D+D62Q+H107M+Y112D/LC F31M+D33F+N35T+Y37F (Fab, V domains shown)
VH: B1 VH with N32D
VL: B1 VL with F31M, I35T, Y37F
B24: 4B7 HC N32D+D62Q+H107M+Y112D/LC F31I+S32R+D33R+N35I+D97T (Fab, V domains shown)
VH: B1 VH with N32D
VL: B1 VL with F31I, S32R, F33R, D97T
B25: 4B7 HC D62R+H107M+Y112D/LC D33F+N35I (Fab, V domains shown)
VH: B1 VH with Q62R
VL: B1 VL
B26: 4B7 HC N32D+D62K+Y112D/LC S32R+D33F+N35I+D97T (Fab, V domains shown)
VH: B1 VH with N32D, Q62K, M107H
VL: B1 VL with S32R, D97T
B27: 4B7 HC N32D+D62Q+H107M+Y112D/LC S32R+D33F+N35I (Fab, V domains shown)
VH: B1 VH with N32D
VL: B1 VL with S32R
B28: 4B7 HC N32D+D62Q+Y112D/LC S32R+D33R+N35I (Fab, V domains shown)
VH: B1 VH with N32D, M107H
VL: B1 VL with S32R, F33R
B29: 4B7 HC D62S+H107M+Y112D/LC S32R+D33F+N35I (Fab, V domains shown)
VH: B1 VH with Q62S
VL: B1 VL with S32R

Molecular target: T1, mouse tissue factor pathway inhibitor …
Assay: competitive ELISA

| Binder | variant/HC_D62R [ratio] | binding result |
| --- | --- | --- |
| B1 | 31.7 |  |
| B2 | 39.9 |  |
| B3 | 38.1 |  |
| B4 | 31.3 |  |
| B5 | 18.5 |  |
| B6 | 16.7 |  |
| B7 | 15.8 |  |
| B8 | 19.4 |  |
| B9 | 40 |  |
| B10 | 50.3 |  |
| B11 |  | no binding |
| B12 | 18.8 |  |
| B13 | 24.7 |  |
| B14 | 16.9 |  |
| B15 | 16.4 |  |
| B16 | 47 |  |
| B17 | 18.2 |  |
| B18 | 35.4 |  |
| B19 | 12 |  |
| B20 | 4.6 |  |
| B21 | 27.1 |  |
| B22 | 46.3 |  |
| B23 | 35.3 |  |
| B24 | 11.5 |  |
| B25 | 36.6 |  |
| B26 | 38.8 |  |
| B27 | 46.6 |  |
| B28 | 23.5 |  |
| B29 | 31.7 |  |

Molecular target: T2, human tissue factor pathway inhibitor …
Assay: competitive ELISA

| Binder | variant/HC_D62R [ratio] |
| --- | --- |
| B1 | 22.7 |
| B2 | 21.9 |
| B3 | 23.6 |
| B4 | 24.2 |
| B5 | 22.8 |
| B6 | 21.4 |
| B7 | 20.8 |
| B8 | 20.1 |
| B9 | 23.2 |
| B10 | 24.1 |
| B11 | 13.5 |
| B12 | 23.7 |
| B13 | 24.9 |
| B14 | 23.2 |
| B15 | 22.2 |
| B16 | 30.9 |
| B17 | 20.4 |
| B18 | 22 |
| B19 | 19 |
| B20 | 14.4 |
| B21 | 25 |
| B22 | 27.3 |
| B23 | 19.4 |
| B24 | 20.2 |
| B25 | 20 |
| B26 | 22.7 |
| B27 | 24.7 |
| B28 | 21.4 |
| B29 | 18.2 |
